According to patent US5750365, “Isolated nucleic acid encoding a newt acidic fibroblast growth factor (AFGF)” (The Ohio State University Research Foundation, dated 1998):

Legend:
[1] = target: bovine brain aFGF (bovine, UniProt P03968, 125I-labeled); experiment: chemical crosslinking (DSS) on CHO-K1 cells over-expressing newt KGFR, SDS-PAGE
Procedure: (§1) CHO cells transfected with pBJ5 vector (lane 1) or with newt KGFR expression vector (lanes 2–4) were crosslinked with ^125I-aFGF using 0.3 mM disuccinimidyl suberate (DSS). Excess amounts (500-fold) of aFGF (lane 3) or KGF (lane 4) were used to compete with ^125I-aFGF. Crosslinked products were analyzed on a 7.5% SDS-polyacrylamide gel.
(§2) To characterize the newt FGFR cDNA functionally, the newt KGFR were expressed in CHO-K1 cells. The mammalian expression vector, pBJ5, which contains a chimeric promoter derived from HTLV-I and SV40, was used to express the newt KGFR and FGFR2 cDNA. […] The crosslinked product can be successfully competed off with a 500-fold molar excess of cold aFGF or human recombinant KGF as shown in FIG. 11. The crosslinked product is absent in KPTr1-8, the CHO cells that were transfected with the pBJ5 vector alone. The crosslinked product thus appears to be specific. Similarly, a cell line over-expressing the human KGFR (T-1063-29-2 from S. A. Aaronson, NIH) was able to produce a somewhat smaller crosslinked product than the newt KGFR. Antibodies (both monoclonal and polyclonal) directed against a peptide from the carboxyl terminus of the newt FGFR2 are generated.

[2] = target: T1, human recombinant KGF (human, UniProt P21781); experiment: competition of 125I-aFGF crosslinking on KPTr2-2 cells; competitor in 500-fold molar excess
T1 sequence: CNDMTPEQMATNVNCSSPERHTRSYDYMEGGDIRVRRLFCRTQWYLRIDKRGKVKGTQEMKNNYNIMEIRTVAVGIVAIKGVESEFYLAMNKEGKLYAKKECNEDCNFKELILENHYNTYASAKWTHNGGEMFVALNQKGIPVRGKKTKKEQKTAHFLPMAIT
Procedure: as §1, §2

[3] = target: recombinant human aFGF (human, UniProt P05230, 125I-labeled); experiment: Scatchard plot of 125I-aFGF binding to KPTr2-2 cells (CHO-K1 expressing newt KGFR)

B1: newt KGFR (KGFR isoform, IIIb, of newt FGFR2; two Ig-like loop variant), expressed on CHO-K1 cells (KPTr2-2) (receptor)
chain: RPSYNIAEDTTLEPEDANSSGDDEDDNDGSEDFTNDNNHMRAPYWTNTEKLEKKLHAVPAANTVKFRCPAGGNPTPSMRWLKNGKEFKQEHRIGGFKVRSQHFSLIMESVVPSDEGNYTCIMENEYGSINHTYHLDVVERSPHRPILQAGLPANTTTKVGGDAEFVCKVYSDAQPHIQWIRHFELNGSKIGPDGHPYLKVLKRSGINSSNAEVLTLHNVTEADRGQYTCKVSNYIGEANQSAWLTVLPASEKDEERELDSSSEYTEIAIYCVGGFLITCMIGTIMVCHMKGRGKKSDFSSPPAVHKLSKSLPLRRQVTVSADSSSSMNSNTPLVRITTRLSSNNDTHLLAGVSEYELPEDPKWEYPREKLTLGKPLGEGCFGQVVMAEAVGIDKDRPKDAATVAVKMLKDDATEKDLSDLVSEMEMMKMIGKHKNIINLLGACTQDGPLYVIVEYASKGNLREYLRTRRPPGMEYSFDINRIPEEQMTFKDLVSCTYQLARGMEYLASQKCIHRDLAARNVLVTETNVMKIADFGLARDINNIDYYKKTTNGRLPVKWMAPEALFDRVYTHQSDVWSFGVLMWEIFTLGGSPYPGIPVEELFKLLKEGHRMDKPGNCTNELYTMMTDCWRAVPSQRPTFKQLVEDLDRILTQTTNEEYLDLNNPLEQYSPSYPDTRSSCSSGDDSVFSPDAMPYDPCLPKSQHTNGTIKT
[1]
  binding result: binds
[2]
  binding result: binds
[3]
  Kd: 1.3 nM
